Measured values published in US8715970B2, “Enzymatically catalyzed method of preparing mono-acylated polyols” (BASF SE, priority 2009, dated 2014).

Tests used:
[1] = Enzyme selectivities and specificities towards 1,4-butanediol with vinyl acetate or vinyl butyrate in MTBE (Example 7); format: biochemical
Protocol: (§1) Reactions using the CALB mutants as described in Example 5 and Example 6 were run with two different straight chain primary diols: 1,2-ethanediol, ≧99.5% from MERCK and 1,4-butanediol, ≧99% from Aldrich. Two different acyl donors were used: vinyl acetate, ≧99% from Fluka and vinyl butyrate, >99% from Fluka. Decane, ≧99% from Fluka, was used as internal standard. MTBE, 99.5% from Lab-Scan was used as solvent.
(§2) Each diol was dissolved to a concentration of 100 mM together with 1 M of the acyl donor and 20 mM decane in MTBE. Reactions were started by adding 3 ml reaction solution to a specific amount of enzyme carrier beads. Different amounts of enzyme carrier beads were used for the different reactions. For reactions with 1,2-ethanediol and vinyl acetate, 19.7 mg wild type, 22.5 mg A282L, 50.5 mg A281V, and 45.5 A281E CALB were used. […]
(§3) All reactions were analyzed on GC, Hewlett Packard 5890 series II. Two different 25 m×0.32 mm WCOT fused silica columns were used, depending on the different substrates and products that were analyzed. […] The response factor for each diol was determined in relationship to decane. When all diol and mono-ester had converted to di-ester, the response factor for the di-ester could be determined in relationship to decane. The concentration of mono-ester in each reaction was determined by subtracting the concentration of di-ester from the starting concentration of diol.

[2] = Enzyme selectivities and specificities towards 1,2-ethanediol with vinyl acetate or vinyl butyrate in MTBE (Example 7); format: biochemical
Protocol: as §1, §2, §3

B1: WT: non-mutated Candida antarctica lipase B (CALB), SEQ ID NO: 2, immobilized on carrier beads (protein, listed as Candida antarctica)
chain: LPSGSDPAFSQPKSVLDAGLTCQGASPSSVSKPILLVPGTGTTGPQSFDSNWIPLSAQLGYTPCWISPPPFMLNDTQVNTEYMVNAITTLYAGSGNNKLPVLTWSQGGLVAQWGLTFFPSIRSKVDRLMAFAPDYKGTVLAGPLDALAVSAPSVWQQTTGSALTTALRNAGGLTQIVPTTNLYSATDEIVQPQVSNSPLDSSYLFNGKNVQAQAVCGPLFVIDHAGSLTSQFSYVVGRSALRSTTGQARSADYGITDCNPLPANDLTPEQKVAAAALLAPAAAAIVAGPKQNCEPDLMPYARPFAVGKRTCSGIVTP
modifications: immobilized on carrier beads
- Initial reaction rates ([1]; vinyl acetate): 0.12 mol/g/min
- Initial reaction rates ([1]; vinyl butyrate): 0.24 mol/g/min
- Initial reaction rates ([2]; vinyl acetate): 0.21 mol/g/min
- Initial reaction rates ([2]; vinyl butyrate): 0.36 mol/g/min
